Values quoted from earlier work in US8759613B1, “Method of producing a lunasin polypeptide in plants” (University of Louisville Research Foundation, Inc., priority 2009, dated 2014).

Conditions: oral administration; digestion

Question: For “lunasin: polypeptide of 43-44 amino acids from soybean with a C-terminal end of nine consecutive aspartic acid residues (MSKWQHQQDSCRKQLQGVNLTPCEKHIMEKIQGRGDDDDDDDDD; Glycine max)”, which orally-administered lunasin degraded is on record?
Answer: ≤ 95%
